Data set [1] addresses CadR from Pseudomonas aeruginosa PAO1 (PaCadR) (Pseudomonas aeruginosa PAO1). As to the kind of experiment: not stated; purified PaCadR in solution (Supplementary Figure S7); method not given.
Data set [2] has the same target. As to the kind of experiment: native gel or EMSA; adaptation of a Ferguson plot of the DNA-bound PaCadR species on native PAGE (Supplementary Figure S6); PaCadR bound to its consensus DNA.
For data set [3], the target named is T1, PaCadR (Pseudomonas aeruginosa PAO1, UniProt Q9HXV1 1-156).
T1 sequence: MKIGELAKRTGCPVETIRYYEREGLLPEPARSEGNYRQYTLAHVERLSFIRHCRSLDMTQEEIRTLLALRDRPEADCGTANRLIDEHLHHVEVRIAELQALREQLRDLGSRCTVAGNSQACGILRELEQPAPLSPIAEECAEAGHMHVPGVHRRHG
In words: BLI; no added metal; EMSA: 1X CutSmart buffer, 1 mM DTT, 3 mM EDTA, 5 nM each DNA, 37 C, 20 min; BLI: 20 mM Tris-Cl pH 7.5, 100 mM NaCl, 0.01% Tween-20, 1 mM DTT, 37 C. The note with it: protein: recombinant; chain copies: 2; label: 5' biotin on ST2R strand; blunt.

Data set [4] deals with T1, PaCadR. As to the kind of experiment: EMSA; 20-80 nM PaCadR; EMSA: 1X CutSmart buffer, 1 mM DTT, 3 mM EDTA, 5 nM each DNA, 37 C, 20 min; BLI: 20 mM Tris-Cl pH 7.5, 100 mM NaCl, 0.01% Tween-20, 1 mM DTT, 37 C. Particulars: protein: recombinant; chain copies: 2; label: 5' IRDye-800 on ConL strand; blunt.
In data set [5] the target is T1, PaCadR. As to the kind of experiment: EMSA; 50 nM PaCadR; not significantly different from WT; EMSA: 1X CutSmart buffer, 1 mM DTT, 3 mM EDTA, 5 nM each DNA, 37 C, 20 min; BLI: 20 mM Tris-Cl pH 7.5, 100 mM NaCl, 0.01% Tween-20, 1 mM DTT, 37 C. Particulars: protein: recombinant; chain copies: 2; label: 5' IRDye-700 on ST2R strand; blunt.

As for “CadR from Pseudomonas aeruginosa PAO1 (PaCadR) (from UniProt A0A0H2ZEP1 1-156) (natural protein)”, the stoichiometry N in data set [1] and in data set [2] was 2 throughout.

B1: Control (BLI) (dsDNA)
DNA 1: CTAGGAATTCGTGCAGAGGTGACGTCATAGAATTCGCATCCCTCCAGAAGCTTGGAC
DNA 2: GTCCAAGCTTCTGGAGGGATGCGAATTCTATGACGTCACCTCTGCACGAATTCCTAG
As to B1, the binding result with PaCadR [3] was “no binding”.

B2: Control (EMSA) (dsDNA)
DNA 1: CCTCTCTATGGGCAGTCGGTGATCTAGGAATTCGTGCAGAGGTGACGTCATAGAATTCGCATCCCTCCAGAAGCTTGGAC
DNA 2: GTCCAAGCTTCTGGAGGGATGCGAATTCTATGACGTCACCTCTGCACGAATTCCTAGATCACCGACTGCCCATAGAGAGG
On to B2, for which the binding result in the data set with PaCadR [4] is “no binding”.

B3: ST2_CadR_mt12 (dsDNA)
DNA 1: CTAGGAATTCGTGCAGAGGTGAAACCCTGTAGTGACTACAGGGTTCATCCCTCCAGAAGCTTGGAC
DNA 2: GTCCAAGCTTCTGGAGGGATGAACCCTGTAGTCACTACAGGGTTTCACCTCTGCACGAATTCCTAG
With B3, the binding result with PaCadR [5] was “binds”.

These data come from article PMC12301328, “Identification of a preferred DNA binding sequence and novel regulon member for CadR in Pseudomonas aeruginosa PAO1”.
